Measured values published in publication PMC11886506.

Assays:
Assay in all cases: EMSA
[1] = biological target: T1, MdEIL1 DNA-binding domain (His-MBP fusion) (UniProt D5L144 1-311)
T1 sequence: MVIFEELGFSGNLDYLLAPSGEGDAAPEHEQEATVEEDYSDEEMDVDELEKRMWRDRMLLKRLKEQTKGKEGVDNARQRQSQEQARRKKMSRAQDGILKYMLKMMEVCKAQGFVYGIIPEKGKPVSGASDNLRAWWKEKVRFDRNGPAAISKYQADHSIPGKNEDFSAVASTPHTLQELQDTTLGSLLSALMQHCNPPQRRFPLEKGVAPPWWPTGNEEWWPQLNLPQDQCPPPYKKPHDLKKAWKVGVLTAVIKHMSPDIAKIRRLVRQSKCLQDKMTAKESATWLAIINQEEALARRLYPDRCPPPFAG

[2] = biological target: T2, MdEIL2 DNA-binding domain (His-MBP fusion) (UniProt D5L145 1-311)
T2 sequence: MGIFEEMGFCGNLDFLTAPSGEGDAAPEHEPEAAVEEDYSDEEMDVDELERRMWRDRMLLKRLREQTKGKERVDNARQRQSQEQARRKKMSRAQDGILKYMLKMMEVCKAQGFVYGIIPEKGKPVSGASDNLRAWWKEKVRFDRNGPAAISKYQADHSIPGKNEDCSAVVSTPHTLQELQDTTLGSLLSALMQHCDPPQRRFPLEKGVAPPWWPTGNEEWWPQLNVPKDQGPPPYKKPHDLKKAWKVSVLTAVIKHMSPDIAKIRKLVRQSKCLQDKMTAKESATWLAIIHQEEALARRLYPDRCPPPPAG

[3] = biological target: T3, MdEIL3 DNA-binding domain (His-MBP fusion) (UniProt D5L146 1-311)
T3 sequence: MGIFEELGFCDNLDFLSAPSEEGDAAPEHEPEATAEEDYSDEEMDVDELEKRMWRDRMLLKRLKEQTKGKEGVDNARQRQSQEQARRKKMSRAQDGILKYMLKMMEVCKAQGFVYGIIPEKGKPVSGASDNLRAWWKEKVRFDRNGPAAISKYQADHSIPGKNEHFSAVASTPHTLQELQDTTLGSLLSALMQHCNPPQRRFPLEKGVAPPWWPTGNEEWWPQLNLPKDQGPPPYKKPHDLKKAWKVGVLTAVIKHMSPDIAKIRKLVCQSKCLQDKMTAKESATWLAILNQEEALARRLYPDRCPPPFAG

His-MBP = His-MBP (UniProt P0AEX9 27-396)

B1: proMdAFS1 MUT probe (dsDNA)
DNA 1: CCCACCCCTCCGGTAGCCTCTTTGATATCCCA
DNA 2: TGGGATATCAAAGAGGCTACCGGAGGGGTGGG
binding result [1]: no binding
binding result [2]: no binding
binding result [3]: no binding

B2: proMdAFS1 WT probe (dsDNA)
DNA 1: CCCACCCCTCCGGAGATTCATTTGATATCCCA
DNA 2: TGGGATATCAAATGAATCTCCGGAGGGGTGGG
binding result (His-MBP): no binding
binding result [1]: binds
binding result [2]: binds
binding result [3]: binds
